Consider 1 molecule from patent US20240327522A1 (Genentech, published 2024).

Assay [1] concerns the target T1, human αvβ6 (human, UniProt P06756 31-992; P18564 22-709).
T1 construct: Counter-screen integrin; construct not described; also called hu.aVb6; αV06
Kind of assay: SPR binding assay, sample hu.aVb1,3,5,6.

Assay [2] has as its target T2, human αvβ1 (human, UniProt P06756 31-992; P05556 21-728).
T2 construct: Counter-screen integrin; construct not described; also called hu.aVb1; αVP1
Kind of assay: SPR binding assay, sample hu.aVb1,3,5,6. (In general: SPR reads the build-up and loss of mass on a sensor chip optically.)

The target of assay [3] is T3, human αvβ5 (human, UniProt P06756 31-992; P18084 24-719).
T3 construct: Counter-screen integrin; construct not described; also called hu.aVb5; αV05
Put plainly: SPR binding assay, sample hu.aVb1,3,5,6.

In assay [4] the target is T4, human αvβ3 (human, UniProt P06756 31-992; P05106 27-718).
T4 construct: Counter-screen integrin; construct not described; also called hu.aVb3; αV03
Kind of assay: SPR binding assay, sample hu.aVb1,3,5,6.

Assay [5] addresses T5, recombinant human αvβ8 protein (PARS-17102) (human).
T5 construct: also called hu.aVb8.17102; not shown: C-terminal acid/basic coils and any purification tags
T5 alpha: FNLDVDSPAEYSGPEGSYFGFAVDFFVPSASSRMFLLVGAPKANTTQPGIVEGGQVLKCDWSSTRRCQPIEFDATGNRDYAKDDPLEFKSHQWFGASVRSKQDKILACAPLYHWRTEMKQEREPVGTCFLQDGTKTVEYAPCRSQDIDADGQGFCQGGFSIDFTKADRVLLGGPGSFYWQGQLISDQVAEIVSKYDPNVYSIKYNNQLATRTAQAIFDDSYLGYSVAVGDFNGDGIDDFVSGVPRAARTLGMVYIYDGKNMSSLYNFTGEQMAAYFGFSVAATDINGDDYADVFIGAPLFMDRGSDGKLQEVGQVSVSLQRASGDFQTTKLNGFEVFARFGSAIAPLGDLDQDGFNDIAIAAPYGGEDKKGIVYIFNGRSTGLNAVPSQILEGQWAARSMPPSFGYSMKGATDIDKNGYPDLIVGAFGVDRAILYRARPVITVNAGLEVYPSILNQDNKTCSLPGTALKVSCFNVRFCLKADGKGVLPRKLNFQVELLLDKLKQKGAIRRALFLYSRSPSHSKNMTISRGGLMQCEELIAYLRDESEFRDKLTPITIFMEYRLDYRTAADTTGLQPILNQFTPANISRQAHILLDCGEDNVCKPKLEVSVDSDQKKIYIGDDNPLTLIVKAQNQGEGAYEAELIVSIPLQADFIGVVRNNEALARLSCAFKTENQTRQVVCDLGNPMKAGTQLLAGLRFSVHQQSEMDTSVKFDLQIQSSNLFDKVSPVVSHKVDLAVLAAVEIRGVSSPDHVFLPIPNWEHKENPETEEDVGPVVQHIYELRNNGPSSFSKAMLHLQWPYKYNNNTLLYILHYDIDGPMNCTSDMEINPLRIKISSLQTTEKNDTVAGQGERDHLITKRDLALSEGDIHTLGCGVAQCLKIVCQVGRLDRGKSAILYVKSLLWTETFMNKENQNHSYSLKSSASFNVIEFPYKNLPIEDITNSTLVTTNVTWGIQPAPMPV
T5 beta: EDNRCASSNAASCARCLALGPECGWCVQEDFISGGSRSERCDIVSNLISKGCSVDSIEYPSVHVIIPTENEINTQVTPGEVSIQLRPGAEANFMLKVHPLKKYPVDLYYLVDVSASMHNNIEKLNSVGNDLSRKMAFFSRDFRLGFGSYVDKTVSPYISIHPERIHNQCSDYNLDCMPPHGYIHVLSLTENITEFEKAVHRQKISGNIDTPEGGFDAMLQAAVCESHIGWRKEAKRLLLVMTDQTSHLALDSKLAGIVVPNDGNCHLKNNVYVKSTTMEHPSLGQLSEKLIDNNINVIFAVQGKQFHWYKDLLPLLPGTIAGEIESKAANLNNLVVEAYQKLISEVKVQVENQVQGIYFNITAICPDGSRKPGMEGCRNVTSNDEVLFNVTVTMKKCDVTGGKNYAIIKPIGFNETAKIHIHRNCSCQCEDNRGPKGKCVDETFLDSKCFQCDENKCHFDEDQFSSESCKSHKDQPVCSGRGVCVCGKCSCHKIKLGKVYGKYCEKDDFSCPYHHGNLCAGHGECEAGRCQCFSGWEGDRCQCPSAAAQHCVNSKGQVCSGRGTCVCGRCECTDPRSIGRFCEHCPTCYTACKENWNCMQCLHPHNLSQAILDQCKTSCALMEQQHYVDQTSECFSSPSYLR
Put plainly: SPR, Biacore T200, Protein A capture, human αvβ8 analyte 0-100 nM, 37 C, 1:1 model (comparison with hC6D4, FIG. 9A). As for the experimental part: The antibodies were first captured either on a Biacore™ Protein A biosensor chip (Cytiva Life Sciences) or on an anti-murine Fc chip to achieve approximately 60 response units. Binding measurements were performed using a running buffer composed of 10 mM HEPES (pH 7.4), 150 mM NaCl, 0.5 mM CaCl₂), and 0.005% Surfactant P20 (Cytiva Life Sciences). For comparison between αvβ8-65 and hC6D4, a 5-fold dilution series of human αvβ8 (range, 0-100 nM in running buffer) was injected into the Biacore™ T200. For comparison between αvβ8-65 and hADWA11-2.4, a 5-fold dilution series of human αvβ8 (range, 0-100 nM in running buffer) was injected. For comparison of all three antibodies in the murine Fc format, a 5-fold dilution series of human αvβ8 (range, 0-50 nM in running buffer) was injected. All injections were performed over 180 seconds, with a dissociation time of 1200 seconds, at a flow rate of 100 μL/minute and a temperature of 37° C. Between sample injections, a regeneration reagent (10 mM glycine pH 1.5 for protein A chip; 10 mM glycine pH 1.7 for anti-murine Fc chip) was injected to regenerate the sensor chip (twice, over 30 seconds at 10 μL/minute for each injection). To determine the binding kinetics and affinity constants of the antibodies to human αvβ8 protein, the signal from the reference flow cell (FC1, with only protein A on the surface) was “double referenced” by subtracting the signal observed after injecting the sample over FC1, followed by subtracting the signal observed after injecting only running buffer. The kinetic constants were calculated using nonlinear regression fitting of the data, according to a 1:1 Langmuir binding model, using Biacore™ Evaluation Software (Cytiva Life Sciences).
The values of the kinetic constants kon, koff, and KD for the binding of αvβ8-65, hC6D4 and ADWA11-2.4 to the various species of αvβ8 proteins are summarized in Table 13. A 1:1 Langmuir binding model was used to determine the KD values. The sensograms observed for the bindings of the various αvβ8 proteins to the captured antibody are shown in FIG. 9A, FIG. 9B, and FIG. 10.

T3 sequence (P18084 24-719 limits assumed, one chain of several): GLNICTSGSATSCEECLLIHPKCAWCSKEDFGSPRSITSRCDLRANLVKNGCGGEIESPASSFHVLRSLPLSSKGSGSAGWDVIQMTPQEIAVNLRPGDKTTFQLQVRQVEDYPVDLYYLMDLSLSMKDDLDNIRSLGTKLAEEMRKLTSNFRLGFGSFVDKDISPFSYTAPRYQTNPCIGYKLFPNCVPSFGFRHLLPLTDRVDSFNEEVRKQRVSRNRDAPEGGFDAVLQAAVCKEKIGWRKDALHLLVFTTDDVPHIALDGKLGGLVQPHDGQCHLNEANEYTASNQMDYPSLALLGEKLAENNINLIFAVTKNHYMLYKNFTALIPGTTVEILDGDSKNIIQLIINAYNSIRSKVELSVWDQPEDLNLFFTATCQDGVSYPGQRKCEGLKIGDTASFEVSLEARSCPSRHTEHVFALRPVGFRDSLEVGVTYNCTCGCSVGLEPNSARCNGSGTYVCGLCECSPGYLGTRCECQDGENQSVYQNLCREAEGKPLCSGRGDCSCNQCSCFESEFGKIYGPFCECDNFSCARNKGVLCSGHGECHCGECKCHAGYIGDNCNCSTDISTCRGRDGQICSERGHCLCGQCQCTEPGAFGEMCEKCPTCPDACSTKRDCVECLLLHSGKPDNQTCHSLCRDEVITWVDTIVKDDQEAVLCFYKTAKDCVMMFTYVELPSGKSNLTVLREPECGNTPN
T1 sequence (P18564 22-709 limits assumed, one chain of several): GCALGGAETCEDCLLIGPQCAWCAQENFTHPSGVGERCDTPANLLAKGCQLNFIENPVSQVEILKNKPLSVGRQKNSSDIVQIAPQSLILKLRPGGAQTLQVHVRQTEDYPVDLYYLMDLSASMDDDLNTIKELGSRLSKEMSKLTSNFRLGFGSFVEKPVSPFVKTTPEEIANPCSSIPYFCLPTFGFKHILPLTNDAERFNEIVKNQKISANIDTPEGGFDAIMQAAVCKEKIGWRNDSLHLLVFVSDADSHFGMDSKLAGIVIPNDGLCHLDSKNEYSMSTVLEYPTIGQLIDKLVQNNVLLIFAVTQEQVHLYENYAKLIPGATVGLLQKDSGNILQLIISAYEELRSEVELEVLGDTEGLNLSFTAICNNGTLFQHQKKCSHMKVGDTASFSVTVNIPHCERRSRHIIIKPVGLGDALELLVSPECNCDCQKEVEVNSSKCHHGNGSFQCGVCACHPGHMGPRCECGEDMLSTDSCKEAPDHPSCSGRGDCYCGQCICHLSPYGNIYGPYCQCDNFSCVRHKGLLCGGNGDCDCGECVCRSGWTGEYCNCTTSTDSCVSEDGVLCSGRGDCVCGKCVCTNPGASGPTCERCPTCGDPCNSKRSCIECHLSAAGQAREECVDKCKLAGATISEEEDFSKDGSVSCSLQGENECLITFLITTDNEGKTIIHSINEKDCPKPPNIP
T4 sequence (P05106 27-718 limits assumed, chain 2 of 2, one chain of several): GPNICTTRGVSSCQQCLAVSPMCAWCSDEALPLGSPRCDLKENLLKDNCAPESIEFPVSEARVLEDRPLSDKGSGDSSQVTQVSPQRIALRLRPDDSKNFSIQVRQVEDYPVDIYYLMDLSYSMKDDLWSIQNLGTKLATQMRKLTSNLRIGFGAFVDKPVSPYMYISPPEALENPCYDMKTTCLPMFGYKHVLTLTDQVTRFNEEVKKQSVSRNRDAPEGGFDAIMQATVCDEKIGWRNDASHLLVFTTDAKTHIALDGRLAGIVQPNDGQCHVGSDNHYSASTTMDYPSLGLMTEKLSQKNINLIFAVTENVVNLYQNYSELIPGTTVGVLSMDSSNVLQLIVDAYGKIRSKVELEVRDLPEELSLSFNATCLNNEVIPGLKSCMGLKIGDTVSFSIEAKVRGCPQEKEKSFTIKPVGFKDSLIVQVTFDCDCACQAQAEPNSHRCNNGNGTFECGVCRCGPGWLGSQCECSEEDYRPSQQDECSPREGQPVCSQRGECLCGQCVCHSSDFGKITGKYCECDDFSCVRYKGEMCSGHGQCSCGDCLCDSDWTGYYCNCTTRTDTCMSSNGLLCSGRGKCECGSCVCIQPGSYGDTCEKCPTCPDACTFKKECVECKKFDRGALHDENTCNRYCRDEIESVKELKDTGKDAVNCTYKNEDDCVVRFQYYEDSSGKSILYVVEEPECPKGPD
T2 sequence (P05556 21-728 limits assumed, one chain of several): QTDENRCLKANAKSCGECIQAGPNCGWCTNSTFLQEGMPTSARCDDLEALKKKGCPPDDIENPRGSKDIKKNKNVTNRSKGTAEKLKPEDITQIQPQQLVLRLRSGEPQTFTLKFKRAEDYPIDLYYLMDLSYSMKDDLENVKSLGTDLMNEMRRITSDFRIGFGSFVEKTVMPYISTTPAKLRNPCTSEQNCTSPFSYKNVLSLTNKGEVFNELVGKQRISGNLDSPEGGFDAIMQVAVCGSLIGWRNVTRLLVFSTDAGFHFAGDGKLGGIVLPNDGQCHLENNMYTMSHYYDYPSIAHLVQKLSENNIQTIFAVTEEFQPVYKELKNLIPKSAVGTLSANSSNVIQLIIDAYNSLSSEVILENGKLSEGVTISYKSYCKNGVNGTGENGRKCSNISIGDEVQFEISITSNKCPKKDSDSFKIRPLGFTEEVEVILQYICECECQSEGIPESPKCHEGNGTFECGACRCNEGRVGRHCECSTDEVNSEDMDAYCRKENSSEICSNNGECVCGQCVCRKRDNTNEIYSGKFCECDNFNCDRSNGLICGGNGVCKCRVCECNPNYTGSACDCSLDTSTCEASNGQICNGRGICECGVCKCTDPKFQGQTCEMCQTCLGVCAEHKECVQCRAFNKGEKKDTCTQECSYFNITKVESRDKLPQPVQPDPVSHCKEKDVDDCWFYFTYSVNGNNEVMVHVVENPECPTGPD

B1: Hu.aVb8-65.H15L2 (aVb8-65.H15L2.hIgG1.LALAPG) (antibody, V domains shown)
VH: EVQLLESGGGLVQPGGSLRLSCAASGIDLSNYAMIWVRQAPGKGLEWVGIISSSDRIWYASWVKGRFTISRDNSKNTLYLQMNSLRAEDTAVYYCSRSVSNSYFDGWNLWGQGTLVTVSS
VL: DIQMTQSPSSVSASVGDRVTITCQASENINSLLAWYQQKPGKAPKLLIYRASTLASGVPSRFSGSGSGTDFTLTISSLQPEDFATYYCQSNYGFTGSGAFFYGFGQGTKVEIKR
notes: Human IgG1 LALAPG; also called PARS-20475-65 (IH) aVb8-65.H15L2.hIgG1.LALAPG; humanized αvβ8-65
For orientation: Kd means the equilibrium constant for the complex coming apart. The term koff denotes a measure of how fast the partners let go of each other. One may read the kon as the rate constant with which the complex forms. As to B1, the binding result in assay [1], in assay [2], in assay [3] and in assay [4] was “no binding” throughout. The equilibrium dissociation constant (Kd) in assay [5] stood at 1.01 nM. Also, in assay [5], the koff was found to be 0.000169 s⁻¹. Also, the kon in assay [5] worked out at 168000 M⁻¹ s⁻¹.
